Measurements as given in patent US5985836A, “Alpha-1 proteinase inhibitor binding peptides” (Bayer Corporation, priority 1998, dated 1999).
Ends that are not written are not given here.

Assays:
[1] = target: T1, A1PI (Homo sapiens, UniProt P01009); test: A1PI purification from 5 mg hSA + 1 mg A1PI on peptide column, A1PI mass balance; assay type: binding; settings: A1PI, 5 mg hSA + 1 mg A1PI; for Percent Eluted by Fraction, 1M NaCl / Percent Eluted by Fraction, 2% Ac. Acid / Percent Eluted by Fraction, 3M NaCl / Percent Eluted by Fraction, Flow: relative to total eluted
T1 construct: Human plasma is currently the only approved source of therapeutic AlPI
T1 sequence (P01009 25-418): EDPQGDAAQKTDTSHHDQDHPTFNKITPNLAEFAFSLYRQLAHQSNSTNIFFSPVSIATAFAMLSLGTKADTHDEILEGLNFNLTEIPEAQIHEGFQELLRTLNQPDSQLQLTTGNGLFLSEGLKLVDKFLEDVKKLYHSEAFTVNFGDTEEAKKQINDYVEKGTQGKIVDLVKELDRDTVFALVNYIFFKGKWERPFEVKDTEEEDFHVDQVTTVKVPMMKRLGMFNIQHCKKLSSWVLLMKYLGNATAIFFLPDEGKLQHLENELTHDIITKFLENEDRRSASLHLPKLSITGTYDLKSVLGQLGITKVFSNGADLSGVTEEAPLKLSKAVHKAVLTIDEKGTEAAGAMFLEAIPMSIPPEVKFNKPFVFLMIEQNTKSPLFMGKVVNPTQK
Procedure, shortened: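 Mass balance by immunonephelometry of fractions from step elutions (1M NaCl, 3M NaCl, 2% acetic acid, neutralised with Tris) at 865 μl/min. Sample was a mixture of 1 mg A1PI and 5 mg hSA held 10 min on peptide-derivatised Toyopearl columns (0.1 mmole/g) at 4 °C or 20 °C.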

[2] = test system: Immunoglobulin A (IgA); test: Purification from Effluent II+III, IgA mass balance; assay type: binding, human; settings: 1 ml Eff. II+III, 4° C.
Procedure, shortened: (§1)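 Run at 4° C: Effluent II+III (1 ml, 20% ethanol) loaded with a 10 min residence. Elution at 865 μl/min, in sequence 1M NaCl, 3M NaCl, 2% acetic acid; A1PI, IgA, IgG and haptoglobin accounted for in each fraction.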

[3] = test system: Immunoglobulin G (IgG); test: Purification from Effluent II+III, IgG mass balance; assay type: binding, human; settings: 1 ml Eff. II+III, 4° C.
Procedure, shortened: as §1

[4] = target: T2, apolipoprotein alpha-1 (Apo A-1) (Homo sapiens, UniProt P02647); test: Purification from Effluent II+III, Apo A-1 mass balance; assay type: binding; settings: 1 ml Eff. II+III, 4° C.
T2 construct: Eff; II+III is a process intermediate in the Cohn plasma fractionation process; tissue Bayer Corporation (Clayton, N.C.); host or cells: plasma fraction: Cohn Effluent II+III
T2 sequence (P02647 19-267): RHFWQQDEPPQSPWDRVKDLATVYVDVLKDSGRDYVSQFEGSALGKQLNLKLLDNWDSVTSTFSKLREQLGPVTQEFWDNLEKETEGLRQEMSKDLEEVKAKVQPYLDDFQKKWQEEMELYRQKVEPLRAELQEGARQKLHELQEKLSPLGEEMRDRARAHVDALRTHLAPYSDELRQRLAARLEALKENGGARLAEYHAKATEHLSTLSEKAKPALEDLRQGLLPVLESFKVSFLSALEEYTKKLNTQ
Procedure, shortened: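 Feed: 1 ml Eff. II+III (20% EtOH, 20-25 mg/ml hSA, ~1 mg/ml A1PI). 10 min residence, then 865 μl/min; steps 1M NaCl / 3M NaCl / 2% acetic acid; 4° C. Mass balance per fraction.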

[5] = target: T1, A1PI; test: Purification of A1PI from Effluent II+III on peptide column, A1PI mass balance; assay type: binding; settings: A1PI, 1 ml Eff. II+III, 4° C.
Procedure, shortened: as §1

[6] = target: T1, A1PI; test: A1PI binding on peptide-resin column, injection of 1 mg A1PI in equilibration buffer; settings: 1 mg A1PI in equilibration buffer
Procedure, shortened: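 Percent of total eluted A1PI per fraction (flowthrough, NaCl steps, 2% acetic acid) determined by A280 integration or immunonephelometry. Columns of peptide-derivatized A-Totda-Toyopearl resin (0.1 mmole/g) received 1 mg A1PI at 4 °C or 20 °C, flow 865 or 523 μl/min.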

[7] = target: T1, A1PI; test: Capture and elution of active A1PI with 2M urea buffer (elastase inhibition activity assay and immunonephelometry); assay type: binding; settings: 4° C.
[8] = 20° C., * Below detection limit
[9] = * as in Tables 4, 5 (below detection limit)

## RFIYYT
[1]; 4° C., * Below detection limit
  Mass Protein per Eluate Fraction, 1M NaCl: 0.27 mg
  Mass Protein per Eluate Fraction, 2% Ac. Acid: 0.64 mg
  Mass Protein per Eluate Fraction, 3M NaCl: 0.04 mg
  Mass Protein per Eluate Fraction, Flow: 0.03 mg
[1]; 4° C.
  Percent Eluted by Fraction, 1M NaCl: 27%
  Percent Eluted by Fraction, 2% Ac. Acid: 66%
  Percent Eluted by Fraction, 3M NaCl: 4%
  Percent Eluted by Fraction, Flow: 3%
[1]; [8]
  Mass Protein per Eluate Fraction, 1M NaCl: 0.11 mg
  Mass Protein per Eluate Fraction, 2% Ac. Acid: 0.44 mg
  Mass Protein per Eluate Fraction, Flow: 0.29 mg
[1]; 20° C.
  Percent Eluted by Fraction, 1M NaCl: 12%
  Percent Eluted by Fraction, 2% Ac. Acid: 53%
  Percent Eluted by Fraction, 3M NaCl: 0%
  Percent Eluted by Fraction, Flow: 35%
[2]
  Percent Eluted by Fraction, 1M NaCl: 31%
  Percent Eluted by Fraction, 2% Acetic Acid: 38%
  Percent Eluted by Fraction, 3M NaCl: 0%
  Percent Eluted by Fraction, Flow: 31%
[2]; [9]
  Mass Protein per Eluate Fraction, 1M NaCl: 0.10 mg
  Mass Protein per Eluate Fraction, 2% Acetic Acid: 0.12 mg
  Mass Protein per Eluate Fraction, Flow: 0.10 mg
[3]
  Percent Eluted by Fraction, 1M NaCl: 7%
  Percent Eluted by Fraction, 2% Acetic Acid: 7%
  Percent Eluted by Fraction, 3M NaCl: 0%
  Percent Eluted by Fraction, Flow: 86%
[3]; [9]
  Mass Protein per Eluate Fraction, 1M NaCl: 0.02 mg
  Mass Protein per Eluate Fraction, 2% Acetic Acid: 0.02 mg
  Mass Protein per Eluate Fraction, Flow: 0.23 mg
[4]
  Percent Eluted by Fraction, 1M NaCl: 0%
  Percent Eluted by Fraction, 2% Acetic Acid: 100%
  Percent Eluted by Fraction, 3M NaCl: 0%
  Percent Eluted by Fraction, Flow: 0%
[4]; [9]
  Mass Protein per Eluate Fraction, 2% Acetic Acid: 0.37 mg
[5]
  Percent Eluted by Fraction, 1M NaCl: 5%
  Percent Eluted by Fraction, 2% Acetic Acid: 80%
  Percent Eluted by Fraction, 3M NaCl: 0%
  Percent Eluted by Fraction, Flow: 15%
[5]; [9]
  Mass Protein per Eluate Fraction, 1M NaCl: 0.05 mg
  Mass Protein per Eluate Fraction, 2% Acetic Acid: 0.81 mg
  Mass Protein per Eluate Fraction, Flow: 0.15 mg
[6]; 4° C.
  Percent A1PI Eluted by Fraction Based on Absorbance at 280 nm, 1M NaCl: 57%
  Percent A1PI Eluted by Fraction Based on Absorbance at 280 nm, 2% Acetic Acid: 43%
  Percent A1PI Eluted by Fraction Based on Absorbance at 280 nm, Flowthrough: 0%
[6]; 20° C.
  Percent A1PI Eluted by Fraction, 1M NaCl: 64%
  Percent A1PI Eluted by Fraction, 2% Acetic Acid: 36%
  Percent A1PI Eluted by Fraction, Flowthrough: 0%
[7]; 1 mg A1PI, eluted with 2M urea, pH 6, elastase inhibition activity assay
  Mass A1PI in Urea Eluate (mg), Activity: 0.67 mg
[7]; 1 mg A1PI, eluted with 2M urea, pH 6, immunonephelometry
  Mass A1PI in Urea Eluate (mg), Nephelometry: 0.80 mg
[7]; mass of A1PI by activity assay relative to immunonephelometry, urea eluate
  Specific Activity: 0.84 mg/mg
